Test results taken from article PMC4394031 (Structure (London, England : 1993), 2015).
One block for each binder: values may come before it.

Tests used:
[1] = biological target: T1, Human Nrp2-b1b2 (Neuropilin-2 domains b1b2, residues 276–595) (human, UniProt O60462 276-595); experiment: crystal structure
T1 sequence (looked up): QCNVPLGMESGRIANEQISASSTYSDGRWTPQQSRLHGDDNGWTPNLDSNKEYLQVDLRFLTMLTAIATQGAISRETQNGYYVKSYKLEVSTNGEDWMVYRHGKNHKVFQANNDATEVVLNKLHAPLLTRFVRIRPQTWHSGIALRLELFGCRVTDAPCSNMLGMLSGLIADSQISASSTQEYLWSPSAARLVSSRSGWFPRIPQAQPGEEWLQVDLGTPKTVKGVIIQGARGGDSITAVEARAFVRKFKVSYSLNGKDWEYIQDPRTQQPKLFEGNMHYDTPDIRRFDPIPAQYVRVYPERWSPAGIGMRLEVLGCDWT

[2] = biological target: the molecule itself; experiment: crystal structure
[3] = biological target: T1, Human Nrp2-b1b2 (Neuropilin-2 domains …); experiment: plate competition assay with AP-tagged ligand
[4] = biological target: T2, AP-VEGF-C (alkaline phosphatase-tagged VEGF-C, residues 108–223) (UniProt P97953 108-223); experiment: plate competition assay with AP-tagged ligand
T2 sequence (looked up): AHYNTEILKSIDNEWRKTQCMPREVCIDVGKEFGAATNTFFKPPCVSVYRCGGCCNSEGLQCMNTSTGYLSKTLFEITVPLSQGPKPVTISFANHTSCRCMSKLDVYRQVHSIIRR

[5] = biological target: T1, Human Nrp2-b1b2 (Neuropilin-2 domains …); experiment: differential scanning fluorimetry

binding result [1]: binds
B1: VEGF-C C-terminus (219-SIIRR-223), the C-terminal five amino acids of mature VEGF-C (peptide)
peptide: SIIRR

B2: Nrp2-b1b2/VEGF-C fusion (human Nrp2 residues 276–595 with VEGF-C 219-SIIRR-223 fused to its C-terminus) (other)
chain: QCNVPLGMESGRIANEQISASSTYSDGRWTPQQSRLHGDDNGWTPNLDSNKEYLQVDLRFLTMLTAIATQGAISRETQNGYYVKSYKLEVSTNGEDWMVYRHGKNHKVFQANNDATEVVLNKLHAPLLTRFVRIRPQTWHSGIALRLELFGCRVTDAPCSNMLGMLSGLIADSQISASSTQEYLWSPSAARLVSSRSGWFPRIPQAQPGEEWLQVDLGTPKTVKGVIIQGARGGDSITAVEARAFVRKFKVSYSLNGKDWEYIQDPRTQQPKLFEGNMHYDTPDIRRFDPIPAQYVRVYPERWSPAGIGMRLEVLGCDWTSIIRR
binding result [2]: binds

IC50 [3]: 10 µM
B3: ATWLPPR, an optimized peptide inhibitor of Nrp (peptide)
peptide: ATWLPPR

IC50 [4]: 1.5 µM
B4: human Nrp2-b1 (residues 276–430) (domain or fragment, UniProt O60462 276-430, looked up)
chain: QCNVPLGMESGRIANEQISASSTYSDGRWTPQQSRLHGDDNGWTPNLDSNKEYLQVDLRFLTMLTAIATQGAISRETQNGYYVKSYKLEVSTNGEDWMVYRHGKNHKVFQANNDATEVVLNKLHAPLLTRFVRIRPQTWHSGIALRLELFGCRVT

Kd [5]: 199 µM
B5: processed VEGF-C C-terminus peptide (215-RQVHSIIRR-223) (peptide)
peptide: WRQVHSIIRR
Tm of Nrp2-b1b2 with 0.5 mM peptide (48.8°C without) [5]: 50.3 °C
